Experimental findings from the supplement of paper PMC9170038 are described below.

The subject of this series is MS2 coat protein. Briefly: apparent KD of MS2 coat protein; designed switch direction (-1 OFF switch, 1 ON switch): -1; higher = weaker reporter binding. The gist of the method: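 Three titration conditions were used: no input, 200 uM small-molecule ligand, and an oligonucleotide input. In each, SNAP-549-labelled MS2 coat protein was raised from 0.7 or 1.5 nM, doubling, to 3 µM over designed RNA switches transcribed on Illumina chips by stalled E. coli RNA polymerase. Curve fits of normalised cluster fluorescence gave values whose per-design median over clusters is the apparent KD.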

Setting [1] is: input ligand: microRNA oligo, concentration not stated.

Consider “ACAUGAGGAUCACCCAUGUAAACAUAAUGGCUCAUGUAGAGUCAGGAUAUGCGUGGCGAACAAUCGCAGAAGGGACAAGACUGG [Deportation 28 - Jieux - Exclusion NG 3] (Eterna round: R96, puzzle: Exclusion NG 3)”, for which the “apparent KD of MS2 coat protein” value is, setting by setting: (input ligand: FMN 200 uM) 29.2 nM; under setting [1], 19.9 nM; (input ligand: none) 27.8 nM.
The like results for “ACAUGAGGAUCACCCAUGUAAACAUGAUGGCUGAUGUAGAGCUAGGAUAUGAGUGACUAUCUAUCUCAGAAGGAGCUUGACUGG [Deportation 45 - Jieux - Exclusion NG 3] (Eterna round: R96, puzzle: Exclusion NG 3)” were, in that order, 26 nM, 27.1 nM and 31.4 nM.
As for “ACAUGAGGAUCACCCAUGUAAUCAUAAUGGCUGAUGUAGAGUCAGGAUAUGUGUGGCUAACAAUCGCAGAAGGGACAAGACUGG [Deportation 32 - Jieux - Exclusion NG 3] (Eterna round: R96, puzzle: Exclusion NG 3)”, the “apparent KD of MS2 coat protein” value by setting is: (input ligand: FMN 200 uM) 31.4 nM; under setting [1], 21.6 nM; (input ligand: none) 29.5 nM.
The like results for “ACAUGAGGAUCACCCAUGUAAUCAUGAUGGCUGAUGUAGAGCUAGGAUAUGAGUGGCUUUCUAUCUCAGAAGGAGCUUGACUGG [Deportation 42 - Jieux - Exclusion NG 3] (Eterna round: R96, puzzle: Exclusion NG 3)” were, in that order, 28.9 nM, 25.5 nM and 37.2 nM.
In the same order, the values of “ACAUGAGGAUCACCCAUGUAAUGAAGGGUACUAUACUAAACGUAGGAUAUCGAUGUAAGAUUGAACGAGAAGGACGAUUGCCUU [JR_ExcNG3_Sub050] (Eterna round: R96, puzzle: Exclusion NG 3)” are 55.9 nM, 42 nM and 72.8 nM.
On to “ACAUGAGGAUCACCCAUGUAAUGAUGGGUACUAUAUUAUUCGUAGGAUAUCGUUGUUAGUUUGUGCGAGAAGGACGAUUGCUUU [JR_ExcNG3_Sub057] (Eterna round: R96, puzzle: Exclusion NG 3)”, for which the “apparent KD of MS2 coat protein” value under setting [1] was determined as 733 nM.
For “ACAUGAGGAUCACCCAUGUACACGUAAUGGCUCAUGUAGAGUCAGGAUAUGCGUGGCGAACUCGCGCAGAAGGGACAAGACUGG [Deportation 21 - Jieux - Exclusion NG 3] (Eterna round: R96, puzzle: Exclusion NG 3)”, the “apparent KD of MS2 coat protein” value is, setting by setting: (input ligand: FMN 200 uM) 27.1 nM; under setting [1], 18.6 nM; (input ligand: none) 23 nM.
The like results for “ACAUGAGGAUCACCCAUGUACACGUAAUGGCUCAUGUAGAGUGAGGAUAUGUGUGACGAACGAGCACAGAAGGCACAAGACUGG [Deportation 12 - Jieux - Exclusion NG 3] (Eterna round: R96, puzzle: Exclusion NG 3)” were, in that order, 51.8 nM, 39.8 nM and 40.2 nM.
For the sequence “ACAUGAGGAUCACCCAUGUACAGGGUUUAGUUUCAUUGUUUGAAGGAUAUACUUAGUUAGUUGUUGUAGAAGGUCAUAUUUUAU [JR_ExcNG3_Sub002] (Eterna round: R96, puzzle: Exclusion NG 3)”, the “apparent KD of MS2 coat protein” value under setting [1] was found to be 156 nM.
With “ACAUGAGGAUCACCCAUGUCAGGCUGGUCCGCUCCGGCUGUUGAGGAUAUAGCACGGUGUCCGCGCUAGAAGGUGAGGGCCGGC [Aenatbe mod 31] (Eterna round: R96, puzzle: Exclusion NG 3)”, the “apparent KD of MS2 coat protein” value worked out at 24.8 nM (input ligand: FMN 200 uM), 15.7 nM under setting [1] and 26.4 nM (input ligand: none).
The like results for “ACAUGAGGAUCACCCAUGUCCGGCUGGUCUGGUCCGGCUGUCGAGGAUAUAGUCCGGUGUUCGCGCUAGAAGGCGGGAGCUGGA [Aenatbe mod 50] (Eterna round: R96, puzzle: Exclusion NG 3)” were, in that order, 144 nM, 62.2 nM and 85 nM.
The like results for “ACAUGAGGAUCACCCAUGUCCGGCUGGUCUGUUCCGGCUGUCGAGGAUAUAGUCCGGUGUUCGCGCUAGAAGGCGGGAGCUGGA [Aenatbe mod 51] (Eterna round: R96, puzzle: Exclusion NG 3)” were, in that order, 67.5 nM, 34.5 nM and 46.2 nM.
Take “ACAUGAGGAUCACCCAUGUCCGGCUGGUCUGUUUCGGCUGUCGAGGAUAUAGUUCGGUGUUCGCGCUAGAAGGUGGGAGCUGGC [Aenatbe mod 58] (Eterna round: R96, puzzle: Exclusion NG 3)”: the “apparent KD of MS2 coat protein” value is, setting by setting: (input ligand: FMN 200 uM) 160 nM; under setting [1], 106 nM; (input ligand: none) 134 nM.
Consider “ACAUGAGGAUCACCCAUGUCGAGUACAUGAGGAUCACCCAUGUAGGAUAUGGUUCGCUUUGCGUGCUAGAAGGAUAUGUGUUGC [salish99_ExNG3_r04_509] (Eterna round: R96, puzzle: Exclusion NG 3)”, for which the “apparent KD of MS2 coat protein” value (input ligand: FMN 200 uM) was 351 nM, the “apparent KD of MS2 coat protein” value under setting [1] is 199 nM and the “apparent KD of MS2 coat protein” value (input ligand: none) turned out to be 241 nM.
The like results for “ACAUGAGGAUCACCCAUGUCGGGCUGGUCCGCUCCGGCUGUUGAGGAUAUAGCCCGGUAUCCGCGCUAGAAGGUGAGGGCCGGC [Aenatbe mod 29] (Eterna round: R96, puzzle: Exclusion NG 3)” were, in that order, 35.6 nM, 29.5 nM and 31.4 nM.
The like results for “ACAUGAGGAUCACCCAUGUCUGGCUGGUCCGCUCCGGCUGUUGAGGAUAUAGCUCGGUGUCCGCGCUAGAAGGUGAGGGCCGGC [Aenatbe mod 33] (Eterna round: R96, puzzle: Exclusion NG 3)” were, in that order, 22.4 nM, 18.6 nM and 25.1 nM.
The like results for “ACAUGAGGAUCACCCAUGUCUGGCUGGUCCGUCUCGGCUGUCGAGGAUAUGGCUCGGUGUCCGCGCUAGAAGGCGGGAGCCGGA [Aenatbe mod 77] (Eterna round: R96, puzzle: Exclusion NG 3)” were, in that order, 685 nM, 58.2 nM and 78.8 nM.
For “ACAUGAGGAUCACCCAUGUCUGGCUGGUCUGCUCCGGCUGUUGAGGAUAUAGUCCGGUGUUCGCGCUAGAAGGCGAGGGCUGGA [Aenatbe mod 42] (Eterna round: R96, puzzle: Exclusion NG 3)”, the “apparent KD of MS2 coat protein” value runs as follows: (input ligand: FMN 200 uM) 42.5 nM; under setting [1], 21.9 nM; (input ligand: none) 48.4 nM.
The like results for “ACAUGAGGAUCACCCAUGUCUGGCUGGUCUGCUCCGGCUGUUGAGGAUAUAGUUCGGUGUUCGCGCUAGAAGGUGAGGGCUGGC [Aenatbe mod 37] (Eterna round: R96, puzzle: Exclusion NG 3)” were, in that order, 32.2 nM, 23.1 nM and 35.6 nM.
In the same order, the values of “ACAUGAGGAUCACCCAUGUGAAAACAAUGGCUGACUUUGAGACAGGAUAUUCGUGCAUAUCAAACGAAGAAGGGUCAUUACUGG [Deportation 94 - Jieux - Exclusion NG 3] (Eterna round: R96, puzzle: Exclusion NG 3)” are 42.2 nM, 26.4 nM and 37.7 nM.
As to “ACAUGAGGAUCACCCAUGUGAAAAGAAUGGCUGACACAGAGAUAGGAUAUAUGUGCAUAUCUAACGUAGAAGGGUCAUGACUGG [Deportation 78 - Jieux - Exclusion NG 3] (Eterna round: R96, puzzle: Exclusion NG 3)”, the “apparent KD of MS2 coat protein” value under setting [1] turned out to be 26.5 nM.
For “ACAUGAGGAUCACCCAUGUGACAAUAAUGGCUGAUACAGAAACAGGAUAUUCGUGAAUAUCUAACGAAGAAGGGUUAUGACUGG [Deportation 68 - Jieux - Exclusion NG 3] (Eterna round: R96, puzzle: Exclusion NG 3)”, the “apparent KD of MS2 coat protein” value (input ligand: FMN 200 uM) is 36.4 nM, the “apparent KD of MS2 coat protein” value under setting [1] is 41 nM and the “apparent KD of MS2 coat protein” value (input ligand: none) turned out to be 44 nM.
The like results for “ACAUGAGGAUCACCCAUGUGACAAUAAUGGCUGAUACAGAGACAGGAUAUAGGUGCAUAUCUAACCUAGAAGGGUCAUGACUGG [Deportation 72 - Jieux - Exclusion NG 3] (Eterna round: R96, puzzle: Exclusion NG 3)” were, in that order, 29.1 nM, 30.6 nM and 36.6 nM.
“ACAUGAGGAUCACCCAUGUGACAAUAAUGGCUGAUAUAGAAACAGGAUAUUCGUGAAUAUCUAACGAAGAAGGGUUAUGACUGG [Deportation 67 - Jieux - Exclusion NG 3] (Eterna round: R96, puzzle: Exclusion NG 3)”: the “apparent KD of MS2 coat protein” value stood at 49 nM (input ligand: FMN 200 uM), 38.3 nM under setting [1] and 51.8 nM (input ligand: none).
Consider “ACAUGAGGAUCACCCAUGUGACCACAAUGGCUGAUGUAACAACAGGAUAUGCGUGAAUAUCUAACGCAGAAGGGUUUUGACUGG [Deportation 59 - Jieux - Exclusion NG 3] (Eterna round: R96, puzzle: Exclusion NG 3)”, for which the “apparent KD of MS2 coat protein” value stood at 84.5 nM (input ligand: FMN 200 uM), 71.5 nM under setting [1] and 91.1 nM (input ligand: none).
The like results for “ACAUGAGGAUCACCCAUGUGACCACAAUGGCUGAUGUAACGACAGGAUAUUCGUGAAUAUCUAACGAAGAAGGGUCAUGACUGG [Deportation 62 - Jieux - Exclusion NG 3] (Eterna round: R96, puzzle: Exclusion NG 3)” were, in that order, 98.8 nM, 52.7 nM and 60.2 nM.
